The source of these data is US20180023146A1 (CLEVELAND CLINIC FOUNDATION, published 2018).

The target of this assay is T1, 3βHSD1 (367N)-HA (human, UniProt P14060 2-373).
T1 construct: Expressed from pCMX-HSD3B1-HA in 293T cells and immunoprecipitated with anti-HA antibody; also called HSD3B1(N)-HA; not shown: HA tag fused to HSD3B1
T1 sequence (looked up): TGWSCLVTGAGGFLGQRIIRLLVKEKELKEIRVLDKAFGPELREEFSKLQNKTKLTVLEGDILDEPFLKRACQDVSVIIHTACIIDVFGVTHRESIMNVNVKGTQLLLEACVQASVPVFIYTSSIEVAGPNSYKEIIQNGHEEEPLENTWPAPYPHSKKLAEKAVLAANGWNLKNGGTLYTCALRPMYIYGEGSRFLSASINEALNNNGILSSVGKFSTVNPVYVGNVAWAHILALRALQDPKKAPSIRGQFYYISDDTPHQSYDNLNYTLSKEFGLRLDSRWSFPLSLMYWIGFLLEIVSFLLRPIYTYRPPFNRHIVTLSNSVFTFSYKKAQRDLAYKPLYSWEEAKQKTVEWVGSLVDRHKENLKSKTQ
In words: SILAC with high-resolution mass spectrometry; 367N-HA (heavy) and 367T-HA (light) immunoprecipitations mixed 1:1.

B1: AMFR (autocrine mobility factor receptor) (enzyme, UniProt Q9UKV5 1-643, looked up)
chain: MPLLFLERFPWPSLRTYTGLSGLALLGTIISAYRALSQPEAGPGEPDQLTASLQPEPPAPARPSAGGPRARDVAQYLLSDSLFVWVLVNTACCVLMLVAKLIQCIVFGPLRVSERQHLKDKFWNFIFYKFIFIFGVLNVQTVEEVVMWCLWFAGLVFLHLMVQLCKDRFEYLSFSPTTPMSSHGRVLSLLVAMLLSCCGLAAVCSITGYTHGMHTLAFMAAESLLVTVRTAHVILRYVIHLWDLNHEGTWEGKGTYVYYTDFVMELTLLSLDLMHHIHMLLFGNIWLSMASLVIFMQLRYLFHEVQRRIRRHKNYLRVVGNMEARFAVATPEELAVNNDDCAICWDSMQAARKLPCGHLFHNSCLRSWLEQDTSCPTCRMSLNIADNNRVREEHQGENLDENLVPVAAAEGRPRLNQHNHFFHFDGSRIASWLPSFSVEVMHTTNILGITQASNSQLNAMAHQIQEMFPQVPYHLVLQDLQLTRSVEITTDNILEGRIQVPFPTQRSDSIRPALNSPVERPSSDQEEGETSAQTERVPLDLSPRLEETLDFGEVEVEPSEVEDFEARGSRFSKSADERQRMLVQRKDELLQQARKRFLNKSSEDDAASESFLPSEGASSDPVTLRRRMLAAAAERRLQKQQTS
notes: It appears to be the protein of the human 293T cells, co-immunoprecipitated with HA-tagged 3βHSD1; also called gp78; ubiquitin E3-ligase AMFR
In the case of B1, the “normalized protein ratio (SILAC; 3βHSD1 (367N)-HA against 3βHSD1 (367T)-HA immunoprecipitates)” value is 1.67.
